Here are results for two molecules from patent publication US20220305006A1, “COMPOSITIONS AND METHODS FOR THE TREATMENT OF NEUROLOGICAL DISEASES AND DISORDERS” (The Regents of the University of California, priority 2019, published 2022).

The test deals with BACE1 structure PDB ID: 1XN3 after removal of BACE inhibitor 1 (apo model used in silico) (UniProt P56817). The experiment in a line: computed, not measured: MMPBSA (AMBER) on 10000 snapshots of a 50 ns molecular dynamics run.
Chain of BACE1 structure PDB ID: 1XN3 after removal of BACE inhibitor 1 (apo model used in silico) (P56817 58-446 limits assumed): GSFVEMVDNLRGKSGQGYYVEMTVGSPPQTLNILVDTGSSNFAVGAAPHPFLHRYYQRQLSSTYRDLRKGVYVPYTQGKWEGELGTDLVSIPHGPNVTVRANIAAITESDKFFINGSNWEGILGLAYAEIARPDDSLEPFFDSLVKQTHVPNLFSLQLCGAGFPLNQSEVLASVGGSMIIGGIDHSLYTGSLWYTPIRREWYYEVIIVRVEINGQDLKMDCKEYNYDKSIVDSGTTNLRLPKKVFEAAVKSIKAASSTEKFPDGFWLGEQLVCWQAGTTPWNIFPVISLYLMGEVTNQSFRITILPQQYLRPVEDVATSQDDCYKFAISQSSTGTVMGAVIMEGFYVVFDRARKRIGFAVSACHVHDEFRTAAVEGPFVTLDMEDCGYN

B1: Peptide 65007 (peptide)
peptide: Ac-ALYPYFLPISAK-NH2
In the case of B1, the BACE Binding ΔG is -45.1 kcal/mol.

B2: Peptide 65005 (peptide)
peptide: Ac-NLTTYPYFIPL-NH2
Turning to B2, the BACE Binding ΔG is -25.4 kcal/mol.
